Experimental data from paper PMC11648244, “Substrate specificity and kinetic mechanism of 3β-hydroxy- Δ ^5-C27-steroid oxidoreductase” (The Journal of Biological Chemistry, 2024).

Legend:
[1] = target: T1, 3β-hydroxy-Δ^5-C27-steroid oxidoreductase (HSD3B7) (Homo sapiens, UniProt Q9H2F3); test: FRET from intrinsic tryptophan fluorescence to NADH, Morrison fit; assay type: binding
T1 construct: WT, N-terminal 6x histidine tag
T1 sequence (Q9H2F3 1-369): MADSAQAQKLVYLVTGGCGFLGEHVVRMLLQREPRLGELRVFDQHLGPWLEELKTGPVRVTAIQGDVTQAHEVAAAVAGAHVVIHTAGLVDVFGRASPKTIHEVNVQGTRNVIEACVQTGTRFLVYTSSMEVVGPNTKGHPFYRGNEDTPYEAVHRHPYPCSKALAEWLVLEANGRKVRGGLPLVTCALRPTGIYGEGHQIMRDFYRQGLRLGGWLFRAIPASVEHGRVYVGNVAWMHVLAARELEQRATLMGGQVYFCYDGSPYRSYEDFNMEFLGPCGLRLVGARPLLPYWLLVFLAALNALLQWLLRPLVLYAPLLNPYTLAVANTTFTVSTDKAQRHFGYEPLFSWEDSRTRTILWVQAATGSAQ

[2] = target: 3β-HSD dehydrogenase type II (HSD3B2) (UniProt P26439); test: cross-linking; chemical crosslinking in solution, bands on a gel
[3] = target: 3β-HSD dehydrogenase type I (HSD3B1) (UniProt P14060); test: as above
[4] = substrate: C[C@@H](CO)CCC[C@@H](C)[C@H]1CC[C@H]2[C@@H]3[C@H](O)C=C4C[C@@H](O)CC[C@]4(C)[C@H]3CC[C@]12C; test: steady-state kinetics of purified enzyme (NAD(P)H-Glo), Km; assay type: biochemical, Homo sapiens; design: kcat / Vmax: unit not given here; conditions: NAD+ predicted oxysterol pocket; F93, F205, I201, Q208 (docking)
[5] = substrate: C[C@H](CCCC(C)(C)O)[C@H]1CC[C@H]2[C@@H]3[C@H](O)C=C4C[C@@H](O)CC[C@]4(C)[C@H]3CC[C@]12C; test: as above; assay type: biochemical, Homo sapiens; design: kcat / Vmax: unit not given here; conditions: NAD+ predicted oxysterol pocket; F93, F205, I201 (docking)
[6] = substrate: CC(C)CCC[C@@H](C)[C@H]1CC[C@H]2[C@@H]3[C@H](O)C=C4C[C@@H](O)CC[C@]4(C)[C@H]3CC[C@]12C; test: as above; assay type: biochemical, Homo sapiens; design: kcat / Vmax: unit not given here; conditions: NAD+ predicted oxysterol pocket; F93, F205, I201; near Y-S-N-K tetrad (docking)
[7] = substrate: CC(CCCC(C)C1CCC2C3C(O)C=C4C[C@@H](O)CC[C@]4(C)C3CC[C@]12C)C(=O)O; test: as above; assay type: biochemical, Homo sapiens; design: kcat / Vmax: unit not given here; conditions: NAD+ predicted oxysterol pocket; F93, F205, I201 (docking)
purified protein = substrate: NC(=O)c1ccc[n+]([C@@H]2O[C@H](COP(=O)([O-])OP(=O)(O)OC[C@H]3O[C@@H](n4cnc5c(N)ncnc54)[C@H](O)[C@@H]3O)[C@@H](O)[C@H]2O)c1; test: purified protein; assay type: biochemical, Homo sapiens; conditions: varied: cofactor
[8] = substrate: CC(C)CCC[C@@H](C)[C@H]1CC[C@H]2[C@@H]3[C@H](O)C=C4C[C@@H](O)CC[C@]4(C)[C@H]3CC[C@]12C; test: steady-state kinetics of purified mutant, Km; assay type: biochemical, Homo sapiens; conditions: NAD+ predicted oxysterol binding pocket
[9] = substrate: CC(C)CCC[C@@H](C)[C@H]1CC[C@H]2[C@@H]3[C@H](O)C=C4C[C@@H](O)CC[C@]4(C)[C@H]3CC[C@]12C; test: steady-state kinetics of purified mutant, apparent Km; assay type: biochemical, Homo sapiens; conditions: NAD+ predicted oxysterol binding pocket
[10] = conserved Rossmann fold domain (docking), binds first

`NC(=O)C1=CN([C@@H]2O[C@H](COP(=O)(O)OP(=O)(O)OC[C@H]3O[C@@H](n4cnc5c(N)ncnc54)[C@H](O)[C@@H]3O)[C@@H](O)[C@H]2O)C=CC1` [NADH] gave a Kd [1] of 780 nM.

Work on “3β-HSD dehydrogenase type II (HSD3B2) (from UniProt P26439 1-372) (enzyme)” yielded a stoichiometry N [2] of 2.

With “3β-HSD dehydrogenase type I (HSD3B1) (from UniProt P14060 1-373) (enzyme)” the stoichiometry N [3] was 2.

B1: 3β-hydroxy-Δ^5-C27-steroid oxidoreductase (HSD3B7) (Homo sapiens) (protein)
chain: MADSAQAQKLVYLVTGGCGFLGEHVVRMLLQREPRLGELRVFDQHLGPWLEELKTGPVRVTAIQGDVTQAHEVAAAVAGAHVVIHTAGLVDVFGRASPKTIHEVNVQGTRNVIEACVQTGTRFLVYTSSMEVVGPNTKGHPFYRGNEDTPYEAVHRHPYPCSKALAEWLVLEANGRKVRGGLPLVTCALRPTGIYGEGHQIMRDFYRQGLRLGGWLFRAIPASVEHGRVYVGNVAWMHVLAARELEQRATLMGGQVYFCYDGSPYRSYEDFNMEFLGPCGLRLVGARPLLPYWLLVFLAALNALLQWLLRPLVLYAPLLNPYTLAVANTTFTVSTDKAQRHFGYEPLFSWEDSRTRTILWVQAATGSAQ
notes: WT, N-terminal 6x histidine tag
With B1 the Km [4] was 3.8 µM, the Vmax [4] was 532.0 (493.0, 573.4) and the kcat [4] was 22.4 (20.7, 24.1). The kcat/Km [4] was 98000 ± 22000 M⁻¹ s⁻¹, the Km [5] was 18.3 µM and the Vmax [5] was 901.8 (785.3, 1044). For the same molecule, the kcat [5] was 37.9 (33.0, 43.9), the kcat/Km [5] was 35000 ± 12000 M⁻¹ s⁻¹ and the Km [6] was 17.4 µM. For the same molecule, the Vmax [6] was 735 (669.5, 812.3), the kcat [6] was 30.9 (28.1, 34.1) and the kcat/Km [6] was 30000 ± 10000 M⁻¹ s⁻¹. For the same molecule, the Km [7] was 8.6 µM, the Vmax [7] was 551.8 (513.5, 593.2) and the kcat [7] was 23.2 (21.6, 24.9). The kcat/Km [7] was 45000 ± 17000 M⁻¹ s⁻¹, the Km (purified protein; [10]) was 45.8 µM and the Vmax (purified protein; [10]) was 587.2 (550.0, 628.7). For the same molecule, the kcat (purified protein; [10]) was 24.7 (23.1, 26.4) and the kcat/Km (purified protein; [10]) was 9000 ± 3200 M⁻¹ s⁻¹.

B2: 3β-hydroxy-Δ^5-C27-steroid oxidoreductase (HSD3B7) (Homo sapiens; F205A) (protein)
chain: MADSAQAQKLVYLVTGGCGFLGEHVVRMLLQREPRLGELRVFDQHLGPWLEELKTGPVRVTAIQGDVTQAHEVAAAVAGAHVVIHTAGLVDVFGRASPKTIHEVNVQGTRNVIEACVQTGTRFLVYTSSMEVVGPNTKGHPFYRGNEDTPYEAVHRHPYPCSKALAEWLVLEANGRKVRGGLPLVTCALRPTGIYGEGHQIMRDAYRQGLRLGGWLFRAIPASVEHGRVYVGNVAWMHVLAARELEQRATLMGGQVYFCYDGSPYRSYEDFNMEFLGPCGLRLVGARPLLPYWLLVFLAALNALLQWLLRPLVLYAPLLNPYTLAVANTTFTVSTDKAQRHFGYEPLFSWEDSRTRTILWVQAATGSAQ
notes: F205A mutant
In the case of B2, the Km [8] is reported as 11.2 µM, the Vmax [8] is reported as 76.6 (62.5, 96.0) and the kcat [8] is reported as 1.5 (1.3, 1.9). For the same molecule, the kcat/Km [8] was 2200 ± 700 M⁻¹ s⁻¹, the Km (purified protein) was 93.8 µM and the Vmax (purified protein) was 288.2 (255.0, 330.6). The kcat (purified protein) was 5.8 (5.1, 6.6) and the kcat/Km (purified protein) was 1000 ± 400 M⁻¹ s⁻¹.

B3: 3β-hydroxy-Δ^5-C27-steroid oxidoreductase (HSD3B7) (Homo sapiens; F93A) (protein)
chain: MADSAQAQKLVYLVTGGCGFLGEHVVRMLLQREPRLGELRVFDQHLGPWLEELKTGPVRVTAIQGDVTQAHEVAAAVAGAHVVIHTAGLVDVAGRASPKTIHEVNVQGTRNVIEACVQTGTRFLVYTSSMEVVGPNTKGHPFYRGNEDTPYEAVHRHPYPCSKALAEWLVLEANGRKVRGGLPLVTCALRPTGIYGEGHQIMRDFYRQGLRLGGWLFRAIPASVEHGRVYVGNVAWMHVLAARELEQRATLMGGQVYFCYDGSPYRSYEDFNMEFLGPCGLRLVGARPLLPYWLLVFLAALNALLQWLLRPLVLYAPLLNPYTLAVANTTFTVSTDKAQRHFGYEPLFSWEDSRTRTILWVQAATGSAQ
notes: F93A mutant
For B3, the Km [9] was 58.2 µM, the Vmax [9] was 286.5 (224.2, 405.0) and the kcat [9] was 14.3 (11.2, 20.3). The kcat/Km [9] was 4100 ± 2000 M⁻¹ s⁻¹.
